# T1: mouse 4-1BB (mouse, UniProt P20334 24-187)
# T1 construct: also called mu4-1BB; murine 4-1BB
# T1 sequence (looked up): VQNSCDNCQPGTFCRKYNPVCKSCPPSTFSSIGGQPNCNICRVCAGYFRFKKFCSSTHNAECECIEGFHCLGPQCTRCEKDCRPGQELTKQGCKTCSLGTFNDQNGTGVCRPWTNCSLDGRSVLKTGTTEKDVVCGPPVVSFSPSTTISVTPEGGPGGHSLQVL
# T2: mouse CD40 (mouse, UniProt P27512 20-193, limits assumed)
# T2 construct: also called murine CD40
# T2 sequence (looked up): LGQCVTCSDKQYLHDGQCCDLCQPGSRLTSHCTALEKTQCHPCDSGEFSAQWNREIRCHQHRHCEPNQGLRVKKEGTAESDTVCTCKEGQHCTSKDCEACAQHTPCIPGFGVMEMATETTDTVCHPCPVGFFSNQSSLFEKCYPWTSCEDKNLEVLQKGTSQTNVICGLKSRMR
# T3: dog CD40 (dog, UniProt Q7YRL5 21-194, limits assumed)
# T3 sequence (looked up): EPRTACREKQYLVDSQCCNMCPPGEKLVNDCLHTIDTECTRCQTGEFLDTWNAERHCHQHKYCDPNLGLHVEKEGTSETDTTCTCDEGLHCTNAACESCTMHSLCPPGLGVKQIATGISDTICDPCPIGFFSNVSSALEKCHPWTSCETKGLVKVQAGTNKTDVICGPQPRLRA
# Experiments:
# mouse 4-1BB = target: T1, mouse 4-1BB; experiment: SPR (Biacore)
# mouse CD40 = target: T2, mouse CD40; experiment: FACS
# dog CD40 = target: T3, dog CD40; experiment: FACS
# [1] = target: human CD40 on cells (HEK293 stable transfectants, HEK-Blue CD40 cells, human B cells, monocytic cells, … (human, UniProt P25942 21-277)); experiment: cell-based or functional assay
# Sequence of human CD40 on cells (HEK293 stable transfectants, HEK-Blue CD40 cells, human B cells, monocytic cells, … (P25942 21-277 limits assumed): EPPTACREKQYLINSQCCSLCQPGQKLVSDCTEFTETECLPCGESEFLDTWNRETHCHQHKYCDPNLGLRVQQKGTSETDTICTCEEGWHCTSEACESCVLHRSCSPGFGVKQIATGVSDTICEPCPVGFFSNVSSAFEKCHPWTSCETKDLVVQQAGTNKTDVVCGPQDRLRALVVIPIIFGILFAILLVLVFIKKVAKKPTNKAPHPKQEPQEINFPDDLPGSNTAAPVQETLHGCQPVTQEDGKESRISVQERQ
Kd (mouse 4-1BB) [nM],binding result (mouse CD40),binding result (dog CD40),Maximal activation (OD655) [1] [OD655],"NF-κB activation EC50, HEK293 CD40 NFκB reporter cells [1] [µg/mL]",Binder
0.36,–,–,–,–,"TABBY108-rIgG1 (antibody, V domains shown, rat IgG1) VH: EIQLQESGPGLVRPSQSLSLACSVTGYTITSAYDWSWIRKFPGNKMEWMGYIAYIGFTNSNPSLKSRISITRDTSKNQFFLQLKSVTTEDTATYYCARWSSYIPRYFDFWGPGTMVTVSS VL: QAVLTQPNSVSTSLGSTVKLSCTITSGNIEDNFVHWYQHYEGRSPTTMIHNDDKRPDGVPDRFSGSIDSSSNSAFLTINNVEIEDEAIYFCHSYVSSINIFGGGTKLTVL"
0.14,–,–,–,–,"TABBY104-rIgG1 (antibody, V domains shown, rat IgG1, kappa) VH: QVTLKESGPGILQPSQTLSLTCTFSGFSLSTDGLGVTWIRQPSGKGLEWLANIWWDDDKDYNPSLKNRLTISKDTSNPQAFLKITNVDTADTATYYCARIVPNSGHEDYWGQGVMVIVSS VL: DIQMTQSPSFLSASVGDRVTINCKASQNINRYLNWYQQKLGEAPKLLMYNTNSMQTGIPSRFSGSGSGTDFTLTISSLQPEDVATYFCLQHNSWPRTFGGGTKLELK"
0.82,–,–,–,–,"TABBY101-rIgG1 (antibody, V domains shown, rat IgG1, kappa) VH: QIQLVQSGPELKKPGESVKISCKASGYTFTDFAIHWVKQAPGKGLKWMGWINTYTGKPTYADDFKGRFVFSLEASASTANLQISNLKNEDTATYFCSRGAPRPTNWGQGTLVTVSS VL: DIQMTQSPASLSASLGETVSIECLASEDIYNNLAWYQQKPGKSPQLLIYYESRLQDGVPTRFSGSGSGTQYSLKINSLESEDAATYFCLQDSEYPYTFGAGTKLELK"
–,no binding,no binding,0.46,0.07,"huAb8-3 (antibody, human IgG1, V domains shown, human IgG1, kappa) VH: EVQLVQSGAEVKKPGSSVKVSCKASGYTFTDYYINWVRQAPGQGLEWIGWIFPGSGSVYCNEQFKGRVTITVDKSTSTAYMELSSLRSEDTAVYYCASSLGKFAYWGQGTLVTVSS VL: DIQMTQSPSSLSASVGDRVTITCKASQSVVTAVAWYQQKPGKSPKLLIYSASNRYTGVPSRFSGSGSGTDFTLTISSLQPEDFATYFCQQYSSYPYTFGGGTKVEIK"
–,no binding,no binding,0.32,4.31,"huAb6-3 (antibody, human IgG1, V domains shown, human IgG1, kappa) VH: EVQLVQSGAEVKKPGSSVKVSCKASGYTFTSYWMHWVRQAPGQGLEWIGNIDPSNGETHYAQKFQGRVTITVDKSTSTAYMELSSLRSEDTAVYYCARERIYYSGSTYDGYFDVWGQGTTVTVSS VL: DIQLTQSPSFLSASVGDRVTITCSASSSLSYMHWYQQKPGKSPKRWIYDTSKLASGVPSRFSGSGSGTEYTLTISSLQPEDFATYYCQQWSSNPWTFGGGTKVEIK"
0.17,–,–,–,–,"TABBY103-rIgG1 (antibody, V domains shown, rat IgG1, kappa) VH: QVQLQQSGAELVKPGSSVKISCKASDYTFTSNFLHWIKQQPGNGLEWIGWINPGDGDTYYNQKFNGKATLTADKSSTTAYMQLSSLTSEDSAVYFCAGGNYYAAHYPPGPWYFDFWGPGTMVTVSS VL: DTVLTQSPALAVSLGQRVTISCRASKSVSIYMHWYQQKSGQQPKFLIYTASNLESGVPSRFSGSGSGTDFTLTIDPVEADDIANYYCQQSNELPFTFGSGTKLEIK"
0.84,–,–,–,–,"TABBY102-rIgG1 (antibody, V domains shown, rat IgG1, kappa) VH: QVQLQQSGAELAKPGSSVKISCKASGYTLTSYYLNWIKQTTGQGLEYIGYIDTGSGGSHYNEKFKGKATLTVDKSSSTAFMQLSSLTPVDSAVYYCARGGYYDGFFDYWGQGVMVTVSS VL: DIQMTQSPASLSASLGETVSIECLASEGISNDLAWYQQKSGKSPQFLIYAASRLQDGVPSRFSGSGSGTRYSLKISGMQPEDEADYFCQQSYKYPPTFGSGTKLEIK"
15,–,–,–,–,"TABBY105-rIgG2a (antibody, V domains shown, rat IgG2a, kappa) VH: EVQLVESGGGLVQPGRSMKLSCAASGFTFNNYDMAWVCQAPKRGLEWVATISYDGSTTYYRDSVKGRFTFSRDNAKSTLYLQMDSLRSEDTATYYCARVGAGDFDYWGQGVMVTVSS VL: DIRMTQSPVSLSTSLGETVNIECLASEDIYSDLAWYQQKPGKSPQLLIYSTNTLQNGVPSRFSGSGSGTQYSLKINSLQSEDVATYFCQQNNNYPYTFGAGTKLELK"
–,no binding,no binding,0.27,0.29,"huAb9-2 (antibody, human IgG1, V domains shown, human IgG1, kappa) VH: EVQLQESGPGLVKPSETLSLTCTVSGYSITSNYYWNWIRQPPGKGLEWMGYIRYDGSNNYNPSLKNRVTISRDTSKNQFSLKLSSVTAADTAVYYCARLDYWGQGTTVTVSS VL: DAVMTQTPLSLSVTPGQPASISCRSSQSLENTNGNTFLNWFLQKPGQSPQLLIYRVSNRFSGVPDRFSGSGSGTDFTLKISRVEAEDVGVYFCLQVTHVPFTFGQGTKLEIK"
–,no binding,no binding,0.61,5.55,"huAb9-4 (antibody, human IgG1, V domains shown, human IgG1, kappa) VH: EVQLQESGPGLVKPSETLSLTCTVSGYSITSNYYWNWIRQPPGKGLEWMGYIRYDGSNNYNPSLKNRITISRDTSKNQFSLKLSSVTAADTAVYYCARLDYWGQGTTVTVSS VL: DAVMTQTPLSLSVTPGQPASISCRSSQSLENTNGNTFLNWYLQKPGQSPQLLIYRVSNRFSGVPDRFSGSGSGTDFTLKISRVEAEDVGVYYCLQVTHVPFTFGQGTKLEIK"
–,no binding,no binding,0.54,5.95,"huAb9-6 (antibody, human IgG1, V domains shown, human IgG1, kappa) VH: EVQLQESGPGLVKPSETLSLTCTVSGYSISSNYYWNWIRQPPGKGLEWMGYIRYDGSNNYNPSLKSRVTISRDTSKNQFSLKLSSVTAADTAVYYCARLDYWGQGTTVTVSS VL: DAVMTQTPLSLSVTPGQPASISCRSSQSLENTNGNTFLNWYLQKPGQSPQLLIYRVSNRFSGVPDRFSGSGSGTDFTLKISRVEAEDVGVYYCLQVTHVPFTFGQGTKLEIK"
–,no binding,no binding,0.26,0.19,"huAb9-1 (antibody, human IgG1, V domains shown, human IgG1, kappa) VH: EVQLQESGPGLVKPSETLSLTCTVSGYSITSNYYWNWIRQPPGKGLEWMGYIRYDGSNNYNPSLKNRITISRDTSKNQFSLKLSSVTAADTAVYYCARLDYWGQGTTVTVSS VL: DAVMTQTPLSLSVTPGQPASISCRSSQSLENTNGNTFLNWFLQKPGQSPQLLIYRVSNRFSGVPDRFSGSGSGTDFTLKISRVEAEDVGVYFCLQVTHVPFTFGQGTKLEIK"
–,no binding,no binding,0.27,0.18,"huAb9-3 (antibody, human IgG1, V domains shown, human IgG1, kappa) VH: EVQLQESGPGLVKPSETLSLTCTVSGYSISSNYYWNWIRQPPGKGLEWMGYIRYDGSNNYNPSLKSRVTISRDTSKNQFSLKLSSVTAADTAVYYCARLDYWGQGTTVTVSS VL: DAVMTQTPLSLSVTPGQPASISCRSSQSLENTNGNTFLNWFLQKPGQSPQLLIYRVSNRFSGVPDRFSGSGSGTDFTLKISRVEAEDVGVYFCLQVTHVPFTFGQGTKLEIK"
